Experiments:
[1] = molecular target: T1, JMJD6 5′/FLAG (amino acids 1-305 with C-terminal FLAG) (human, UniProt Q6NYC1 1-305); assay: immunofluorescence on transfected MeWo cells
T1 construct: range 1-305; Expressed in transfected MeWo cells and tested by immunofluorescence; also called JM 5′/FLAG

JMJD6 peptide 2 = molecular target: T2, JMJD6 peptide 2 (human); assay: ELISA on plated peptides (1 ug/well)
T2 construct: also called pool A
T2 peptide: RIREAKRSARPELK
Method: (§1) A peptide library was synthesized (Primm), consisting of 57 peptides with 14 amino acids each and whose sequences overlap for 7 amino acids. In order to assay the interaction with collagen, the peptides, were sown in a plate (1 ug/well) and incubated for the whole night at 4° C. […] The reaction was developed and read at 450 nm as indicated above. As control two unrelated peptides were used and the reactivity of the antibodies on the peptides in absence of collagen was evaluated.

JMJD6 peptide 17 = molecular target: T3, JMJD6 peptide 17 (human); assay: ELISA on plated peptides (1 ug/well)
T3 construct: also called pool C
T3 peptide: KMKYYIEYMESTRD
Method: as §1

JMJD6 peptide 53 = molecular target: T4, JMJD6 peptide 53 (human); assay: ELISA on plated peptides (1 ug/well)
T4 construct: also called pool I
T4 peptide: SEGDGTVHRRKKRR
Method: as §1

JMJD6 peptide 24 = molecular target: T5, JMJD6 peptide 24 (human); assay: ELISA on plated peptides (1 ug/well)
T5 construct: also called pool E
T5 peptide: QYAGEKRRPPYRWF
Method: as §1

JMJD6 peptide 45 = molecular target: T6, JMJD6 peptide 45 (human); assay: ELISA on plated peptides (1 ug/well)
T6 construct: also called pool H
T6 peptide: SRKWYRILKQEHPE
Method: as §1

JMJD6 peptide 41 = molecular target: T7, JMJD6 peptide 41 (human); assay: ELISA on plated peptides (1 ug/well)
T7 construct: also called pool G
T7 peptide: TIAITQNFASSTNF
Method: as §1

JMJD6 peptide 38 = molecular target: T8, JMJD6 peptide 38 (human); assay: ELISA on plated peptides (1 ug/well)
T8 construct: also called pool G
T8 peptide: KPGETVFVPGGWWH
Method: as §1

JMJD6 peptide 20 = molecular target: T9, JMJD6 peptide 20 (human); assay: ELISA on plated peptides (1 ug/well)
T9 construct: also called pool D
T9 peptide: DSSYGEHPKRRKLL
Method: as §1

JMJD6 peptide 1 = molecular target: T10, JMJD6 peptide 1 (human); assay: ELISA on plated peptides (1 ug/well)
T10 construct: also called pool A
T10 peptide: MNHKSKKRIREAKR
Method: as §1

JMJD6 peptide 54 = molecular target: T11, JMJD6 peptide 54 (human); assay: ELISA on plated peptides (1 ug/well)
T11 construct: also called pool I
T11 peptide: HRRKKRRTCSMVGN
Method: as §1

JMJD6 peptide 14 = molecular target: T12, JMJD6 peptide 14 (human); assay: ELISA on plated peptides (1 ug/well)
T12 construct: also called pool B
T12 peptide: RKYRNQKFKCGEDN
Method: as §1

JMJD6 peptide 30 = molecular target: T13, JMJD6 peptide 30 (human); assay: ELISA on plated peptides (1 ug/well)
T13 construct: also called pool F
T13 peptide: KRWCLFPTSTPREL
Method: as §1

JMJD6 peptide 40 = molecular target: T14, JMJD6 peptide 40 (human); assay: ELISA on plated peptides (1 ug/well)
T14 construct: also called pool G
T14 peptide: VVLNLDTTIAITQN
Method: as §1

JMJD6 peptide 44 = molecular target: T15, JMJD6 peptide 44 (human); assay: ELISA on plated peptides (1 ug/well)
T15 construct: also called pool H
T15 peptide: VRGRPKLSRKWYRI
Method: as §1

JMJD6 peptide 39 = molecular target: T16, JMJD6 peptide 39 (human); assay: ELISA on plated peptides (1 ug/well)
T16 construct: also called pool G
T16 peptide: VPGGWWHVVLNLDT
Method: as §1

JMJD6 peptide 29 = molecular target: T17, JMJD6 peptide 29 (human); assay: ELISA on plated peptides (1 ug/well)
T17 construct: also called pool F
T17 peptide: NALVQGHKRWCLFP
Method: as §1

JMJD6 peptide 16 = molecular target: T18, JMJD6 peptide 16 (human); assay: ELISA on plated peptides (1 ug/well)
T18 construct: also called pool C
T18 peptide: DGYSVKMKMKYYIE
Method: as §1

JMJD6 peptide 43 = molecular target: T19, JMJD6 peptide 43 (human); assay: ELISA on plated peptides (1 ug/well)
T19 construct: also called pool H
T19 peptide: PVVWHKTVRGRPKL
Method: as §1

JMJD6 peptide 13 = molecular target: T20, JMJD6 peptide 13 (human); assay: ELISA on plated peptides (1 ug/well)
T20 construct: also called pool B
T20 peptide: WTLERLKRKYRNQK
Method: as §1

JMJD6 peptide 25 = molecular target: T21, JMJD6 peptide 25 (human); assay: ELISA on plated peptides (1 ug/well)
T21 construct: also called pool E
T21 peptide: RPPYRWFVMGPPRS
Method: as §1

JMJD6 peptide 21 = molecular target: T22, JMJD6 peptide 21 (human); assay: ELISA on plated peptides (1 ug/well)
T22 construct: also called pool D
T22 peptide: PKRRKLLEDYKVPK
Method: as §1

binding result [1]: no binding
binding result (JMJD6 peptide 2): no binding
binding result (JMJD6 peptide 17): no binding
binding result (JMJD6 peptide 53): no binding
binding result (JMJD6 peptide 24): no binding
binding result (JMJD6 peptide 45): no binding
binding result (JMJD6 peptide 41): no binding
binding result (JMJD6 peptide 38): no binding
binding result (JMJD6 peptide 20): no binding
binding result (JMJD6 peptide 1): no binding
binding result (JMJD6 peptide 54): no binding
binding result (JMJD6 peptide 14): no binding
binding result (JMJD6 peptide 30): no binding
binding result (JMJD6 peptide 40): no binding
binding result (JMJD6 peptide 44): no binding
binding result (JMJD6 peptide 39): no binding
binding result (JMJD6 peptide 29): no binding
binding result (JMJD6 peptide 16): no binding
binding result (JMJD6 peptide 43): no binding
binding result (JMJD6 peptide 13): no binding
binding result (JMJD6 peptide 25): no binding
binding result (JMJD6 peptide 21): no binding
B1: monoclonal antibody P4E11 (antibody, V domains shown, not shown: a dimerising Fc or GST)
VH: QVQLKQSGPGLVQPSQSLSITCTVSGFSLSSYGVHWVRQSPGKGLEWLGVIWRSGNTDYNAVFMSRLSITKDDSKSQVFFKMNSLQADDTAIYYCAKNFRYDVGSWFAYWGQGTLVTVSA
VL: NIMMTQSPSSLAVSAGEKVTMNCKSSQSILYSSNHKNYLAWYQQKPGQSPKLLIYWASTRESGVPNRFTGSGSGTDFTLTISSVQSEDLAVYYCHQYLSSYTFGGGTKLEIKR
